Reference: patent US20150132813A1, “BIOSYNTHETIC PATHWAYS, RECOMBINANT CELLS, AND METHODS” (REGENTS OF THE UNIVERSITY OF MINNESOTA, priority 2012, published 2015)

Legend:
PA1 strain [1] = assay: Shake flask fermentation for pentanoic acid production (PA1 strain with pIPA1, pIPA3 and a DC-DH plasmid), HPLC; conditions: aldehyde dehydrogenase varied, wild-type KIVD as 2-ketoacid decarboxylase; 40 g/L glucose, 48 hours, 30° C.
PA1 strain [2] = assay: Shake flask fermentation for 2-methylbutyric acid production (PA1 strain with pIPA1, pIPA2 and a DC-DH plasmid), HPLC; conditions: aldehyde dehydrogenase varied, wild-type KIVD as 2-ketoacid decarboxylase; 40 g/L glucose, 48 hours, 30° C.
CCC(C)C(=O)C(=O)O = assay: purified protein, by the assay type; conditions: other: substrate of IPDC, coupled assay, pH 6.8
Protocol: (§1) The kinetic parameters were measured by monitoring the NADH absorbance at 340 nm.
(§2) The kinetic parameters were measured by monitoring the NADH absorbance at 340 nm. The activity of IPDC was measured using a coupled enzymatic assay method.
(§3) The activity of IPDC was measured using a coupled enzymatic assay method. Excess of an appropriate aldehyde dehydrogenase (AldH for 2-Keto-3-methylvalerate and KDHba for 2-Ketocaproate) was used to oxidize aldehyde into acid while cofactor NAD+ was reduced to NADH. The assay mixture contained 0.5 mM NAD+, 0.1 μM appropriate aldehyde dehydrogenase and corresponding 2-keto acid in the range of 1 mM to 8 mM in assay buffer (50 mM NaH2PO4, pH 6.8, 1 mM MgSO4, 0.5 mM ThDP) with a total volume of 78 μL. To start the reaction, 2 μL of 1 μM IPDC was added and generation of NADH was monitored at 340 nm. Kinetic parameters (kcat and KM) were determined by fitting initial rate data to the Michaelis-Menten equation.
CCCCC(=O)C(=O)O = assay: purified protein, by the assay type; conditions: other: substrate of IPDC, coupled assay, pH 6.8
Protocol: as §1, §2, §3

[3] = tested on: α-ketoglutaric semialdehyde dehydrogenase KDHba; conditions: substrate of KDHba; from Xiong et al., Sci Rep 2012; cited from earlier work
[4] = target: T1, 3-hydroxypropionaldehyde dehydrogenase AldH (Escherichia coli, UniProt P23883); assay: Enzymatic assay of AldH (NADH absorbance at 340 nm); conditions: substrate of AldH; pH 8.0, 0.5 mM NAD+
T1 sequence (P23883 1-495): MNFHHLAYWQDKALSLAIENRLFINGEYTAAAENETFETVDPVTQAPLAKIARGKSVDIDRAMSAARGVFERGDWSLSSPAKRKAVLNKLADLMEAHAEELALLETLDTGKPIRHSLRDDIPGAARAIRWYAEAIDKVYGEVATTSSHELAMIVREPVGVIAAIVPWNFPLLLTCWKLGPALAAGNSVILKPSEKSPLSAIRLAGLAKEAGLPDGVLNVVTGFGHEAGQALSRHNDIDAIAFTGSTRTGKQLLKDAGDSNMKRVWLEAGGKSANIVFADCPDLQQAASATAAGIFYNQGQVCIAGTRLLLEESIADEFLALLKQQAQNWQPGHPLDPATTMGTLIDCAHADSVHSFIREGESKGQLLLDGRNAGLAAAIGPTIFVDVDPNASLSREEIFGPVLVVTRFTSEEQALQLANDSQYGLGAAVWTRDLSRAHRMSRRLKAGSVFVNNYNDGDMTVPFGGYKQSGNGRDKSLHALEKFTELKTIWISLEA
Protocol: as §1
(§4) Enzymatic assay of KDHba consisted of 0.5 mM NAD+ and valeraldehyde in the range of 50 μM to 400 μM in assay buffer (50 mM NaH2PO4, pH 8.0, 1 mM DTT) with a total volume of 78 μL. To start the reaction, 2 μL of 1 M KDHba was added and generation of NADH was monitored at 340 nm (extinction coefficient, 6.22 mM^−1 cm^−1). A similar protocol was used for AldH with 2-Methyl butyraldehyde concentrations in the range of 1 mM to 6 mM.

[5] = target: indolepyruvate decarboxylase (IPDC) (Salmonella enterica, UniProt H9L492); assay: Coupled enzymatic assay of IPDC (NADH absorbance at 340 nm); conditions: substrate of IPDC, pH 6.8
Protocol: as §1, §2, §3

[6] = substrate: CCC(C)C=O; assay: purified protein, by the assay type; conditions: other: substrate of AldH, pH 8.0, 0.5 mM NAD+, 30.0 °C
Protocol: as §1, §4

Chain of indolepyruvate decarboxylase (IPDC) (H9L492 1-550): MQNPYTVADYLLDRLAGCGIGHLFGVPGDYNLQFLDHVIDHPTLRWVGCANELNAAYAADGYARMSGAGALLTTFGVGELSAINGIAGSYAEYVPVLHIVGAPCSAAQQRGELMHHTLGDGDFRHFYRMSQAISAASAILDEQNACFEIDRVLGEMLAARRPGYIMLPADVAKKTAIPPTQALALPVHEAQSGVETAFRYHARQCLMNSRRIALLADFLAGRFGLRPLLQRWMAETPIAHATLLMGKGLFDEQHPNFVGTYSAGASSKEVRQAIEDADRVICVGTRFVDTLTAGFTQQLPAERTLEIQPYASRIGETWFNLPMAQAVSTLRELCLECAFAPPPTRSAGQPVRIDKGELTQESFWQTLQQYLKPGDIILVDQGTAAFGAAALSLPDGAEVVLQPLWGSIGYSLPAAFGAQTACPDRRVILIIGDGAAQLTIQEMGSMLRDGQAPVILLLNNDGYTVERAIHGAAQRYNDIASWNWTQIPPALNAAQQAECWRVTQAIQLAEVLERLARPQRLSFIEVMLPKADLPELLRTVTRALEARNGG

YdcW: γ-aminobutyraldehyde dehydrogenase YdcW from E. coli
pentanoic acid titer (PA1 strain [1]): 0.22 g/L
2-methylbutyric acid titer (PA1 strain [2]): 0.23 g/L

indolepyruvate decarboxylase (IPDC) (Salmonella enterica subsp. enterica serovar Typhimurium str. LT2)
Km (CCC(C)C(=O)C(=O)O): 0.85 mM
kcat (CCC(C)C(=O)C(=O)O): 4.13 ± 0.21 s⁻¹
kcat/Km (CCC(C)C(=O)C(=O)O): 4860 M⁻¹ s⁻¹
Km (CCCCC(=O)C(=O)O): 0.63 mM
kcat (CCCCC(=O)C(=O)O): 1.89 ± 0.06 s⁻¹
kcat/Km (CCCCC(=O)C(=O)O): 3000 M⁻¹ s⁻¹

CC(C)C=O [isobutyraldehyde]
Km [3]: 34.5 mM

CCC(C)C=O (stereo not drawn) [2-Methyl butyraldehyde, 2-methyl butyraldehyde]
kcat [4]: 3.55 s⁻¹

CC(C)CC=O [isovaleraldehyde]
Km [3]: 7.62 mM

CCCCC(=O)C(=O)O [2-Ketocaproate, 2-ketocaproate]
kcat [5]: 1.89 s⁻¹

CCC(C)C(=O)C(=O)O (stereo not drawn) [2-Keto-3-methylvalerate, 2-keto-3-methylvalerate]
kcat [5]: 4.13 s⁻¹

B1: 3-hydroxypropionaldehyde dehydrogenase AldH (Escherichia coli K-12) (protein)
chain: MNFHHLAYWQDKALSLAIENRLFINGEYTAAAENETFETVDPVTQAPLAKIARGKSVDIDRAMSAARGVFERGDWSLSSPAKRKAVLNKLADLMEAHAEELALLETLDTGKPIRHSLRDDIPGAARAIRWYAEAIDKVYGEVATTSSHELAMIVREPVGVIAAIVPWNFPLLLTCWKLGPALAAGNSVILKPSEKSPLSAIRLAGLAKEAGLPDGVLNVVTGFGHEAGQALSRHNDIDAIAFTGSTRTGKQLLKDAGDSNMKRVWLEAGGKSANIVFADCPDLQQAASATAAGIFYNQGQVCIAGTRLLLEESIADEFLALLKQQAQNWQPGHPLDPATTMGTLIDCAHADSVHSFIREGESKGQLLLDGRNAGLAAAIGPTIFVDVDPNASLSREEIFGPVLVVTRFTSEEQALQLANDSQYGLGAAVWTRDLSRAHRMSRRLKAGSVFVNNYNDGDMTVPFGGYKQSGNGRDKSLHALEKFTELKTIWISLEA
Km [6]: 1.89 mM
kcat [6]: 3.55 ± 0.17 s⁻¹
kcat/Km [6]: 1880 M⁻¹ s⁻¹
pentanoic acid titer (PA1 strain [1]): 1.76 g/L
2-methylbutyric acid titer (PA1 strain [2]): 2.51 g/L

B2: Al dB: acetaldehyde dehydrogenase AldB from E. coli (protein, UniProt P37685 1-512, looked up)
Aldehyde dehydrogenase B: MTNNPPSAQIKPGEYGFPLKLKARYDNFIGGEWVAPADGEYYQNLTPVTGQLLCEVASSGKRDIDLALDAAHKVKDKWAHTSVQDRAAILFKIADRMEQNLELLATAETWDNGKPIRETSAADVPLAIDHFRYFASCIRAQEGGISEVDSETVAYHFHEPLGVVGQIIPWNFPLLMASWKMAPALAAGNCVVLKPARLTPLSVLLLMEIVGDLLPPGVVNVVNGAGGVIGEYLATSKRIAKVAFTGSTEVGQQIMQYATQNIIPVTLELGGKSPNIFFADVMDEEDAFFDKALEGFALFAFNQGEVCTCPSRALVQESIYERFMERAIRRVESIRSGNPLDSVTQMGAQVSHGQLETILNYIDIGKKEGADVLTGGRRKLLEGELKDGYYLEPTILFGQNNMRVFQEEIFGPVLAVTTFKTMEEALELANDTQYGLGAGVWSRNGNLAYKMGRGIQAGRVWTNCYHAYPAHAAFGGYKQSGIGRETHKMMLEHYQQTKCLLVSYSDKPLGLF
pentanoic acid titer (PA1 strain [1]): 0.42 g/L
2-methylbutyric acid titer (PA1 strain [2]): 2.31 g/L

B3: GabD: succinate semialdehyde dehydrogenase GabD from E. coli (protein, UniProt P25526 1-482, looked up)
Succinate-semialdehyde …: MKLNDSNLFRQQALINGEWLDANNGEAIDVTNPANGDKLGSVPKMGADETRAAIDAANRALPAWRALTAKERATILRNWFNLMMEHQDDLARLMTLEQGKPLAEAKGEISYAASFIEWFAEEGKRIYGDTIPGHQADKRLIVIKQPIGVTAAITPWNFPAAMITRKAGPALAAGCTMVLKPASQTPFSALALAELAIRAGVPAGVFNVVTGSAGAVGNELTSNPLVRKLSFTGSTEIGRQLMEQCAKDIKKVSLELGGNAPFIVFDDADLDKAVEGALASKFRNAGQTCVCANRLYVQDGVYDRFAEKLQQAVSKLHIGDGLDNGVTIGPLIDEKAVAKVEEHIADALEKGARVVCGGKAHERGGNFFQPTILVDVPANAKVSKEETFGPLAPLFRFKDEADVIAQANDTEFGLAAYFYARDLSRVFRVGEALEYGIVGINTGIISNEVAPFGGIKASGLGREGSKYGIEDYLEIKYMCIGL
pentanoic acid titer (PA1 strain [1]): 0.54 g/L
2-methylbutyric acid titer (PA1 strain [2]): 0.14 g/L

B4: PadA: phenylacetaldehyde dehydrogenase PadA from E. coli (protein, UniProt P80668 1-499, looked up)
Phenylacetaldehyde …: MTEPHVAVLSQVQQFLDRQHGLYIDGRPGPAQSEKRLAIFDPATGQEIASTADANEADVDNAVMSAWRAFVSRRWAGRLPAERERILLRFADLVEQHSEELAQLETLEQGKSIAISRAFEVGCTLNWMRYTAGLTTKIAGKTLDLSIPLPQGARYQAWTRKEPVGVVAGIVPWNFPLMIGMWKVMPALAAGCSIVIKPSETTPLTMLRVAELASEAGIPDGVFNVVTGSGAVCGAALTSHPHVAKISFTGSTATGKGIARTAADHLTRVTLELGGKNPAIVLKDADPQWVIEGLMTGSFLNQGQVCAASSRIYIEAPLFDTLVSGFEQAVKSLQVGPGMSPVAQINPLVSRAHCDKVCSFLDDAQAQQAELIRGSNGPAGEGYYVAPTLVVNPDAKLRLTREEVFGPVVNLVRVADGEEALQLANDTEYGLTASVWTQNLSQALEYSDRLQAGTVWVNSHTLIDANLPFGGMKQSGTGRDFGPDWLDGWCETKSVCVRY
pentanoic acid titer (PA1 strain [1]): 2.12 g/L
2-methylbutyric acid titer (PA1 strain [2]): 2.26 g/L
